Experimental data taken from the supplement of paper PMC9112550, “Optimization of the antimicrobial peptide Bac7 by deep mutational scanning” (BMC Biology, 2022).

test system: Escherichia coli TOP10; assay: shrunken log2 fold change of peptide-encoding DNA abundance (4.5 h post-induction vs induction); higher = less antimicrobial activity (less host growth inhibition); details: time post-induction: 4.5 h; library: site-saturation at positions 5, 18, 19, 20
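Also: peptides expressed intracellularly from a pBAD plasmid library in pooled LB shake-flask culture, induced with 0.3% L-arabinose, DNA abundance read by NGS, three biological replicates, DESeq2 with apeglm shrinkage.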

RRIRIRPPRLPRPRPRPVHNPRP and RRIRNRPPRLPRPRPRPLSLPRP are within 0.2 log units of each other in “shrunken log2 fold change” value: -0.357 for the first, -0.291 for the second.

Compared with RRIRNRPPRLPRPRPRPIIVPRP, RRIRGRPPRLPRPRPRPRRMPRP is higher in “shrunken log2 fold change” value: -0.286 for the first, 0.706 for the second.

Compared with RRIRPRPPRLPRPRPRPELQPRP, RRIRTRPPRLPRPRPRPTYQPRP is lower in “shrunken log2 fold change” value: 0.345 for the first, -0.206 for the second.

RRIRWRPPRLPRPRPRPCRRPRP and RRIRMRPPRLPRPRPRPNRHPRP are within 0.2 log units of each other in “shrunken log2 fold change” value: 0.0574 for the first, 0.0213 for the second.

RRIRWRPPRLPRPRPRPMSHPRP and RRIRARPPRLPRPRPRPFEYPRP are within 0.2 log units of each other in “shrunken log2 fold change” value: -0.132 for the first, -0.0276 for the second.

First: RRIRDRPPRLPRPRPRPARAPRP
Second: RRIRPRPPRLPRPRPRPPTHPRP
The “shrunken log2 fold change” value of the first is higher: 0.928 for the first, 0.317 for the second.

RRIRNRPPRLPRPRPRPGDVPRP and RRIRNRPPRLPRPRPRPAKFPRP are within 0.2 log units of each other in “shrunken log2 fold change” value: -0.0732 for the first, -0.179 for the second.

Compared with RRIRGRPPRLPRPRPRPGSRPRP, RRIRHRPPRLPRPRPRPRQSPRP is lower in “shrunken log2 fold change” value: 0.565 for the first, 0.144 for the second.

Compared with RRIRSRPPRLPRPRPRPYHFPRP, RRIRCRPPRLPRPRPRPWRCPRP is higher in “shrunken log2 fold change” value: -1.8 for the first, 0.486 for the second.

Going from RRIRMRPPRLPRPRPRPPFRPRP to RRIRLRPPRLPRPRPRPAFRPRP, the “shrunken log2 fold change” value falls from 0.693 to 0.0862.

Compared with RRIRLRPPRLPRPRPRPMCRPRP, RRIRARPPRLPRPRPRPCTLPRP is higher in “shrunken log2 fold change” value: -0.0985 for the first, 0.151 for the second.

Compared with RRIRQRPPRLPRPRPRPDHHPRP, RRIRCRPPRLPRPRPRPTQIPRP is higher in “shrunken log2 fold change” value: -0.308 for the first, 0.452 for the second.

First: RRIRERPPRLPRPRPRPMGNPRP
Second: RRIRSRPPRLPRPRPRPTSTPRP
The “shrunken log2 fold change” value of the first is higher: 0.0248 for the first, -0.236 for the second.

First: RRIRARPPRLPRPRPRPLPCPRP
Second: RRIRGRPPRLPRPRPRPRNWPRP
The “shrunken log2 fold change” value of the first is lower: 0.13 for the first, 1.35 for the second.

First: RRIRTRPPRLPRPRPRPVFFPRP
Second: RRIRHRPPRLPRPRPRPPLDPRP
The “shrunken log2 fold change” value of the first is lower: 0.0831 for the first, 0.372 for the second.

Compared with RRIRKRPPRLPRPRPRPIINPRP, RRIRLRPPRLPRPRPRPNTCPRP is lower in “shrunken log2 fold change” value: 0.172 for the first, -0.823 for the second.

RRIRERPPRLPRPRPRPMYYPRP and RRIRVRPPRLPRPRPRPIYMPRP are within 0.2 log units of each other in “shrunken log2 fold change” value: -0.241 for the first, -0.438 for the second.

RRIRWRPPRLPRPRPRPDRSPRP and RRIRIRPPRLPRPRPRPGPMPRP are within 0.2 log units of each other in “shrunken log2 fold change” value: 0.0405 for the first, 0.0608 for the second.

First: RRIRPRPPRLPRPRPRPRIEPRP
Second: RRIRTRPPRLPRPRPRPDFSPRP
The “shrunken log2 fold change” value of the first is higher: 0.175 for the first, -0.0283 for the second.

RRIRQRPPRLPRPRPRPLYLPRP and RRIRTRPPRLPRPRPRPWDMPRP are within 0.2 log units of each other in “shrunken log2 fold change” value: -0.511 for the first, -0.33 for the second.

Going from RRIRFRPPRLPRPRPRPHTCPRP to RRIRWRPPRLPRPRPRPTANPRP, the “shrunken log2 fold change” value rises from 0.00442 to 0.399.

Going from RRIRERPPRLPRPRPRPDNDPRP to RRIRNRPPRLPRPRPRPLPGPRP, the “shrunken log2 fold change” value rises from -0.259 to 0.143.

First: RRIRVRPPRLPRPRPRPLMHPRP
Second: RRIRGRPPRLPRPRPRPYPDPRP
The “shrunken log2 fold change” value of the first is lower: -0.249 for the first, 0.201 for the second.

First: RRIRRRPPRLPRPRPRPTHRPRP
Second: RRIRKRPPRLPRPRPRPIQDPRP
The “shrunken log2 fold change” value of the first is higher: 0.867 for the first, -0.106 for the second.

RRIRQRPPRLPRPRPRPQHSPRP and RRIRNRPPRLPRPRPRPQKHPRP are within 0.2 log units of each other in “shrunken log2 fold change” value: -0.062 for the first, -0.227 for the second.

RRIRYRPPRLPRPRPRPIGEPRP and RRIRLRPPRLPRPRPRPHFQPRP are within 0.2 log units of each other in “shrunken log2 fold change” value: -0.135 for the first, -0.131 for the second.

RRIRRRPPRLPRPRPRPFKLPRP and RRIRERPPRLPRPRPRPQAQPRP are within 0.2 log units of each other in “shrunken log2 fold change” value: -0.0153 for the first, -0.0773 for the second.

Compared with RRIRHRPPRLPRPRPRPYHFPRP, RRIRPRPPRLPRPRPRPSQHPRP is higher in “shrunken log2 fold change” value: -0.686 for the first, -0.278 for the second.

RRIRLRPPRLPRPRPRPMWYPRP and RRIRIRPPRLPRPRPRPPLVPRP are within 0.2 log units of each other in “shrunken log2 fold change” value: 0.0493 for the first, 0.0482 for the second.

Going from RRIRYRPPRLPRPRPRPHKSPRP to RRIRGRPPRLPRPRPRPHHTPRP, the “shrunken log2 fold change” value rises from -0.526 to -0.12.

Compared with RRIRTRPPRLPRPRPRPFCNPRP, RRIRVRPPRLPRPRPRPSMFPRP is lower in “shrunken log2 fold change” value: 0.0687 for the first, -0.245 for the second.

RRIRFRPPRLPRPRPRPPVFPRP and RRIRQRPPRLPRPRPRPIEEPRP are within 0.2 log units of each other in “shrunken log2 fold change” value: 0.138 for the first, -0.00208 for the second.

Going from RRIRARPPRLPRPRPRPKLQPRP to RRIRKRPPRLPRPRPRPCPRPRP, the “shrunken log2 fold change” value falls from 0.64 to 0.163.

Going from RRIRMRPPRLPRPRPRPPKSPRP to RRIRARPPRLPRPRPRPYEWPRP, the “shrunken log2 fold change” value falls from 0.478 to -0.0646.

Going from RRIRTRPPRLPRPRPRPNILPRP to RRIRIRPPRLPRPRPRPDEDPRP, the “shrunken log2 fold change” value rises from -0.484 to -0.00875.

Going from RRIRSRPPRLPRPRPRPNTKPRP to RRIRNRPPRLPRPRPRPQTRPRP, the “shrunken log2 fold change” value rises from -0.259 to 0.0246.

RRIRKRPPRLPRPRPRPRKCPRP and RRIRARPPRLPRPRPRPNNEPRP are within 0.2 log units of each other in “shrunken log2 fold change” value: 0.0121 for the first, -0.14 for the second.

With RRIRIRPPRLPRPRPRPEPVPRP the “shrunken log2 fold change” value was 0.14.
